Consider one molecule from patent publication US20220259328A1 (Kyowa Kirin, published 2022).

In one assay the target is T1, human CD40-GST (human, UniProt P25942 21-193).
T1 construct: also called human CD40-GST protein; not shown: GST region of the N5 vector
In words: phage ELISA on immobilized human CD40-GST, anti-M13-HRP detection. Here is the method:
(§1) In the ELISA, MAXISORP (manufactured by NUNC, Inc.) in which the human or monkey CD40-GST in Example 1 was immobilized on each well and a portion to which the human or monkey CD40-GST is not bound was blocked using SuperBlock Blockig Buffer (manufactured by Thermo Fisher. Inc.) was used. To each well, each phage clone was added and reacted at room temperature for 30 minutes, and thereafter, each well was washed 3 times with PBS-T.

Another assay addresses T2, monkey CD40-GST (monkey, UniProt P25942 21-193 (human entry)).
T2 construct: also called monkey CD40-GST protein; not shown: GST region of the N5 vector
T2 chain: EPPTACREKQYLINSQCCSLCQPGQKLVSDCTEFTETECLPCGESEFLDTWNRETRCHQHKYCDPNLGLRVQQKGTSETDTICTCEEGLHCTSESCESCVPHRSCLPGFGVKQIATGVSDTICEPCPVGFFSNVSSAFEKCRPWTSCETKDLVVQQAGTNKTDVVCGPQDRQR
The experiment in a line: phage ELISA on immobilized monkey CD40-GST, anti-M13-HRP detection. Here is the method: as §1

B1: R1090S55A (monoclonal phage clone displaying scFv) (scFv, V domains shown)
VH: EVQLVQSGAEVKKPGESLKISCKGSGYSFIIYWIGWVRQMPGKGLEWMGIIYPNDADTRYSPSFQGQVTISADKSISTAYLQWSSLKASDTAMYYCVRLGTRDWFDPWGQGTLVTVSS
VL: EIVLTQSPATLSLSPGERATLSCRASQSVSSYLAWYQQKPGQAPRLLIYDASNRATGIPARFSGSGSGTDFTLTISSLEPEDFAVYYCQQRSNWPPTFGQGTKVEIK
notes: also called anti-CD40 antibody R1090S55A
Take B1: the binding result in the assay with human CD40-GST and with monkey CD40-GST was “binds” each time.
